Measured values taken from patent US20160153985A1.

What was measured:
[1] = biological target: pure human iC3b (Complement Technology, A115) (human) (UniProt P01024); experiment: sandwich ELISA, capture A209 (Example 5), goat anti-C3-HRP; TABLE 6 well A6, blocker
[2] = biological target: pure human iC3b (Complement Technology, A115) (human) (UniProt P01024); experiment: sandwich ELISA, capture A209 (Example 5), goat anti-C3-HRP; TABLE 6 well H4, 10% vitreous
[3] = biological target: pure human iC3b (Complement Technology, A115) (human) (UniProt P01024); experiment: sandwich ELISA, capture A209 (Example 5), goat anti-C3-HRP; TABLE 6 well E7, 20% vitreous
[4] = biological target: pure human iC3b (Complement Technology, A115) (human) (UniProt P01024); experiment: sandwich ELISA, capture A209 (Example 5), goat anti-C3-HRP; TABLE 6 well D4, 30% vitreous
[5] = biological target: pure human iC3b (Complement Technology, A115) (human) (UniProt P01024); experiment: sandwich ELISA, capture A209 (Example 5), goat anti-C3-HRP; TABLE 6 well E2, 20% vitreous
[6] = biological target: pure human iC3b (Complement Technology, A115) (human) (UniProt P01024); experiment: sandwich ELISA, capture A209 (Example 5), goat anti-C3-HRP; TABLE 6 well H5, 10% vitreous
[7] = biological target: pure human iC3b (Complement Technology, A115) (human) (UniProt P01024); experiment: sandwich ELISA, capture A209 (Example 5), goat anti-C3-HRP; TABLE 6 well E3, 20% vitreous
[8] = biological target: pure human iC3b (Complement Technology, A115) (human) (UniProt P01024); experiment: sandwich ELISA, capture A209 (Example 5), goat anti-C3-HRP; TABLE 6 well H9, 10% vitreous
[9] = biological target: pure human iC3b (Complement Technology, A115) (human) (UniProt P01024); experiment: sandwich ELISA, capture A209 (Example 5), goat anti-C3-HRP; TABLE 6 well G7, 10% vitreous
[10] = biological target: pure human iC3b (Complement Technology, A115) (human) (UniProt P01024); experiment: sandwich ELISA, capture A209 (Example 5), goat anti-C3-HRP; TABLE 6 well G2, 10% vitreous
[11] = biological target: pure human iC3b (Complement Technology, A115) (human) (UniProt P01024); experiment: sandwich ELISA of Example 5, iC3b concentration labeled 0.0125 in 20% human vitreous, mean of duplicates less background
[12] = biological target: pure human iC3b (Complement Technology, A115) (human) (UniProt P01024); experiment: sandwich ELISA, capture A209 (Example 5), goat anti-C3-HRP; TABLE 6 well B4, blocker
[13] = biological target: pure human iC3b (Complement Technology, A115) (human) (UniProt P01024); experiment: sandwich ELISA, capture A209 (Example 5), goat anti-C3-HRP; TABLE 6 well H2, 10% vitreous
[14] = biological target: pure human iC3b (Complement Technology, A115) (human) (UniProt P01024); experiment: sandwich ELISA, capture A209 (Example 5), goat anti-C3-HRP; TABLE 6 well C2, 30% vitreous
[15] = biological target: pure human iC3b (Complement Technology, A115) (human) (UniProt P01024); experiment: sandwich ELISA, capture A209 (Example 5), goat anti-C3-HRP; TABLE 6 well D3, 30% vitreous
[16] = biological target: pure human iC3b (Complement Technology, A115) (human) (UniProt P01024); experiment: sandwich ELISA, capture A209 (Example 5), goat anti-C3-HRP; TABLE 6 well C8, 30% vitreous
[17] = biological target: pure human iC3b (Complement Technology, A115) (human) (UniProt P01024); experiment: sandwich ELISA, capture A209 (Example 5), goat anti-C3-HRP; TABLE 6 well C4, 30% vitreous
[18] = biological target: pure human iC3b (Complement Technology, A115) (human) (UniProt P01024); experiment: sandwich ELISA, capture A209 (Example 5), goat anti-C3-HRP; TABLE 6 well B6, blocker
[19] = biological target: pure human iC3b (Complement Technology, A115) (human) (UniProt P01024); experiment: sandwich ELISA, capture A209 (Example 5), goat anti-C3-HRP; TABLE 6 well A2, blocker
[20] = biological target: pure human iC3b (Complement Technology, A115) (human) (UniProt P01024); experiment: sandwich ELISA, capture A209 (Example 5), goat anti-C3-HRP; TABLE 6 well C5, 30% vitreous

Sequence of UniProt P01024 (P01024 23-667 limits assumed, chain 1 of 3): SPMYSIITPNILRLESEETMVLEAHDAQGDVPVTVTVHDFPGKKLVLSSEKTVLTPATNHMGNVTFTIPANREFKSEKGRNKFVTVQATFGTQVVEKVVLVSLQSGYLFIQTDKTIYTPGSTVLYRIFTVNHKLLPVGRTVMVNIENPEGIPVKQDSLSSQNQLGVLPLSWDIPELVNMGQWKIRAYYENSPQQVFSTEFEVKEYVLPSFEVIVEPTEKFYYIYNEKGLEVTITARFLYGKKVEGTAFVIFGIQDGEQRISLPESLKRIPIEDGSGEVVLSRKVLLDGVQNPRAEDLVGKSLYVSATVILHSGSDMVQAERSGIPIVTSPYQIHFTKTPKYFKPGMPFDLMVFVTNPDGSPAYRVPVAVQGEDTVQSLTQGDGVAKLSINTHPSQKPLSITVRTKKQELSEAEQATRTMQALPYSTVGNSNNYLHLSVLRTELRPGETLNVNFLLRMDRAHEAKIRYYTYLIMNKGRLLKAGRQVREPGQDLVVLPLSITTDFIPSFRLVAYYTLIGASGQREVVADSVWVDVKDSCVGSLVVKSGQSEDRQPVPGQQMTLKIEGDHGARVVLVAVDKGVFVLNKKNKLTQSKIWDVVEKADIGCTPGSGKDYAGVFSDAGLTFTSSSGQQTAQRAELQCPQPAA
Sequence of UniProt P01024 (P01024 749-1303 limits assumed, chain 2 of 3): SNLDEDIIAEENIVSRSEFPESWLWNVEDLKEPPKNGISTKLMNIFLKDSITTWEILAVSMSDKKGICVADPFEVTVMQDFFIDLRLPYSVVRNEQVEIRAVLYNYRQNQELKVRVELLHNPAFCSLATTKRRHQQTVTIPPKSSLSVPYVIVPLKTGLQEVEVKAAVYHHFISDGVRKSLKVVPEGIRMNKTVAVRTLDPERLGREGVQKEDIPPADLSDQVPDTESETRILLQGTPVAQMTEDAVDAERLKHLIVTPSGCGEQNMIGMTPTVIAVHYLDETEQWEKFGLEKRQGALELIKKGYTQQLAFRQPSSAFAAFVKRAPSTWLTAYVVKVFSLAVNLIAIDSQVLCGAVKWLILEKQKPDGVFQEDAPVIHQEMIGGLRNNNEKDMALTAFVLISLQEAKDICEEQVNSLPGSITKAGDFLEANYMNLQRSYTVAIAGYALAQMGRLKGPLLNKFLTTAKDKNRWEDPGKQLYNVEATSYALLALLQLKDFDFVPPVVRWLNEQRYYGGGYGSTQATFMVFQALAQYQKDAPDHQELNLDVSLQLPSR
Sequence of UniProt P01024 (P01024 1321-1663 limits assumed, chain 3 of 3): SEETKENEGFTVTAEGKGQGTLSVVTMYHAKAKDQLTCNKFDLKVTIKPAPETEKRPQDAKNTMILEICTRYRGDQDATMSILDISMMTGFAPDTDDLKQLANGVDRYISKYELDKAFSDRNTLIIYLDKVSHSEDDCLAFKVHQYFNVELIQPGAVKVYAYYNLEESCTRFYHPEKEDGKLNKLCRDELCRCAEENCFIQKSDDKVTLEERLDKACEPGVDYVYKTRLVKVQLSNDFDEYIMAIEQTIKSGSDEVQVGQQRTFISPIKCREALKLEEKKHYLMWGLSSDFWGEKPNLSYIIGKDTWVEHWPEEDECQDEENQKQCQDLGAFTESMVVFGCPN

Substance: mouse anti-iC3b antibody A209 (Quidel)
- raw A450 at iC3b 0.063 ug/ml [1]: 0.064 OD
- raw A450 at iC3b 0.25 ug/ml [2]: 0.283 OD
- raw A450 at iC3b 0.031 ug/ml [3]: 0.339 OD
- raw A450 at iC3b 0.25 ug/ml [4]: 0.433 OD
- raw A450 at iC3b 1 ug/ml [5]: 0.485 OD
- raw A450 at iC3b 0.125 ug/ml [6]: 0.3 OD
- raw A450 at iC3b 0.5 ug/ml [7]: 0.442 OD
- raw A450 at iC3b 0.0078 ug/ml [8]: 0.207 OD
- raw A450 at iC3b 0.031 ug/ml [9]: 0.248 OD
- raw A450 at iC3b 1 ug/ml [10]: 0.508 OD
- net absorbance A450 (matrix only value 0.328 subtracted) [11]: 0.049 A450
- raw A450 at iC3b 0.25 ug/ml [12]: 0.167 OD
- raw A450 at iC3b 1 ug/ml [13]: 0.42 OD
- raw A450 at iC3b 1 ug/ml [14]: 0.443 OD
- raw A450 at iC3b 0.5 ug/ml [15]: 0.406 OD
- raw A450 at iC3b 0.016 ug/ml [16]: 0.336 OD
- raw A450 at iC3b 0.25 ug/ml [17]: 0.391 OD
- raw A450 at iC3b 0.063 ug/ml [18]: 0.07 OD
- raw A450 at iC3b 1 ug/ml [19]: 0.371 OD
- raw A450 at iC3b 0.125 ug/ml [20]: 0.385 OD
